Assay results published in PMC10397247.
Blank lines part the entries; values can stand above or below the binder they belong to.

What was measured:
Test in all cases: two-hybrid library CCNG1;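 also: natural log of median RNA to DNA barcode read ratio; higher means stronger binding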
[1] = molecular target: T1, 4H264-bA
T1 chain: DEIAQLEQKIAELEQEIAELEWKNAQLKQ

[2] = molecular target: T2, 4H2760-bA
T2 chain: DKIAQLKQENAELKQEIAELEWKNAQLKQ

[3] = molecular target: T3, 4H2859-bA
T3 chain: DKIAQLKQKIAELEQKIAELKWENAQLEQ

[4] = molecular target: T4, 4H2931-bA
T4 chain: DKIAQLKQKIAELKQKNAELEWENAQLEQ

[5] = molecular target: T5, 4H3041-bA
T5 chain: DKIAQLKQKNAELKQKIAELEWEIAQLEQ

[6] = molecular target: T6, 4H3297-bA
T6 chain: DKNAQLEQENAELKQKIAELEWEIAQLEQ

[7] = molecular target: T7, 4H3364-bA
T7 chain: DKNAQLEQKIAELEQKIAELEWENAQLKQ

[8] = molecular target: T8, 4H3381-bA
T8 chain: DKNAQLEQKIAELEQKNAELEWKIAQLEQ

[9] = molecular target: T9, 4H3427-bA
T9 chain: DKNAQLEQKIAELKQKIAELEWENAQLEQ

[10] = molecular target: T10, 4H349-bA
T10 chain: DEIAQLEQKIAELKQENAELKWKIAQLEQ

[11] = molecular target: T11, 4H56-bA
T11 chain: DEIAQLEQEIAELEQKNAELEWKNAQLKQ

[12] = molecular target: T12, 4H730-bA
T12 chain: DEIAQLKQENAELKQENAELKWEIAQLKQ

[13] = molecular target: T13, 4H796-bA
T13 chain: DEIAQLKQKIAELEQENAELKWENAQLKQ

[14] = molecular target: T14, 4H932-bA
T14 chain: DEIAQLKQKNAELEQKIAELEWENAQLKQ

[15] = molecular target: T15, 4H949-bA
T15 chain: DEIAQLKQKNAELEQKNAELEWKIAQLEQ

[16] = molecular target: T16, O8-bS
T16 chain: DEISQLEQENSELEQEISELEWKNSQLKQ

[17] = molecular target: T17, P5SH
T17 chain: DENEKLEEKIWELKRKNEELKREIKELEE

[18] = molecular target: T18, O11
T18 chain: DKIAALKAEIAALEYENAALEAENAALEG

[19] = molecular target: T19, O12
T19 chain: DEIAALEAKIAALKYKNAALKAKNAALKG

[20] = molecular target: T20, O13
T20 chain: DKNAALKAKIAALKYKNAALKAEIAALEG

[21] = molecular target: T21, O14
T21 chain: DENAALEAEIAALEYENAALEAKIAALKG

[22] = molecular target: T22, O15
T22 chain: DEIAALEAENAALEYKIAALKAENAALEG

[23] = molecular target: T23, O16
T23 chain: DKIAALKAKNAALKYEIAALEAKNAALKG

[24] = molecular target: T24, O2
T24 chain: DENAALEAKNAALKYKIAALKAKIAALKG

[25] = molecular target: T25, O3
T25 chain: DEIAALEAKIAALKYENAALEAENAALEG

[26] = molecular target: T26, O4
T26 chain: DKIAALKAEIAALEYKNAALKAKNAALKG

[27] = molecular target: T27, O5
T27 chain: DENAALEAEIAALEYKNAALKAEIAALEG

[28] = molecular target: T28, O6
T28 chain: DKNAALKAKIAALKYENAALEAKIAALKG

[29] = molecular target: T29, O7
T29 chain: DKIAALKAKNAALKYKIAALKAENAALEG

[30] = molecular target: T30, O8
T30 chain: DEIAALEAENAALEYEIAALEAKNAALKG

[31] = molecular target: T31, O9
T31 chain: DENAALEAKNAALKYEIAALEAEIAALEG

[32] = molecular target: T32, P3A-bS
T32 chain: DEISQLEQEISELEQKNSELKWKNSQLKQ

[33] = molecular target: T33, 4H570-bA
T33 chain: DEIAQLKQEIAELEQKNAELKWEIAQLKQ

[34] = molecular target: T34, 4H584-bA
T34 chain: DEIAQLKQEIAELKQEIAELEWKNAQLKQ

[35] = molecular target: T35, 4H619-bA
T35 chain: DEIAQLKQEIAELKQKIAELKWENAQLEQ

[36] = molecular target: T36, 4H850-bA
T36 chain: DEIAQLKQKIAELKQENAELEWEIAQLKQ

[37] = molecular target: T37, 4H906-bA
T37 chain: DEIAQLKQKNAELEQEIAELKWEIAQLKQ

[38] = molecular target: T38, 4H953-bN
T38 chain: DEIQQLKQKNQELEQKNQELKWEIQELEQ

[39] = molecular target: T39, 4H1348-bN
T39 chain: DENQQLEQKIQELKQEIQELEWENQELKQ

[40] = molecular target: T40, 4H1373-bN
T40 chain: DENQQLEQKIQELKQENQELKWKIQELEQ

[41] = molecular target: T41, 4H1449-bN
T41 chain: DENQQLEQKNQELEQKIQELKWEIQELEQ

[42] = molecular target: T42, 4H1544-bN
T42 chain: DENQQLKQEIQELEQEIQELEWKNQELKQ

[43] = molecular target: T43, 4H1710-bN
T43 chain: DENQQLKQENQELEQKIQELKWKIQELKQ

[44] = molecular target: T44, 4H1899-bN
T44 chain: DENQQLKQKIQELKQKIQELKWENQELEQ

[45] = molecular target: T45, 4H1985-bN
T45 chain: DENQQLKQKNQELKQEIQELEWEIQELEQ

[46] = molecular target: T46, 4H3162-bN
T46 chain: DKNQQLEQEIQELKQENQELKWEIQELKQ

[47] = molecular target: T47, 4H3175-bN
T47 chain: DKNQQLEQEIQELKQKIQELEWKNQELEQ

[48] = molecular target: T48, 4H3277-bN
T48 chain: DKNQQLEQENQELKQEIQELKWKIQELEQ

[49] = molecular target: T49, 4H3298-bN
T49 chain: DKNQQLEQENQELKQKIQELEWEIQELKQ

[50] = molecular target: T50, 4H3462-bN
T50 chain: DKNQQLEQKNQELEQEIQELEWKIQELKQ

[51] = molecular target: T51, 4H3497-bN
T51 chain: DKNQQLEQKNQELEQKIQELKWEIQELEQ

[52] = molecular target: T52, 4H3613-bN
T52 chain: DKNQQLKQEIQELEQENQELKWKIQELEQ

[53] = molecular target: T53, 4H3628-bN
T53 chain: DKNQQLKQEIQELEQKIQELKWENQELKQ

[54] = molecular target: T54, 4H3817-bN
T54 chain: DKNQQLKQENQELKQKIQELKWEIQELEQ

[55] = molecular target: T55, 4H3858-bN
T55 chain: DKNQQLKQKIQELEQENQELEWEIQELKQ

[56] = molecular target: T56, 4H3926-bN
T56 chain: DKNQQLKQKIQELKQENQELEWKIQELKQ

[57] = molecular target: T57, 4H3974-bN
T57 chain: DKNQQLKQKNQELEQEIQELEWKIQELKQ

[58] = molecular target: T58, 4H570-bN
T58 chain: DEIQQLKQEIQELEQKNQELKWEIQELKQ

[59] = molecular target: T59, 4H591-bN
T59 chain: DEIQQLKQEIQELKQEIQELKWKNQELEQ

[60] = molecular target: T60, 4H626-bN
T60 chain: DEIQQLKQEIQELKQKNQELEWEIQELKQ

[61] = molecular target: T61, 4H850-bN
T61 chain: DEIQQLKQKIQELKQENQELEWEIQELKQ

[62] = molecular target: T62, 4H906-bN
T62 chain: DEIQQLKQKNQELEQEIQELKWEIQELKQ

[63] = molecular target: T63, P6bH1
T63 chain: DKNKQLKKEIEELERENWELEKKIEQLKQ

Binder: DEIAQLEQKIAELEQEIAELEWKNAQLKQ [4H264-bA]
interaction score [1]: 1.38
interaction score [2]: -0.475
interaction score [3]: 1.6
interaction score [4]: 2.07
interaction score [5]: 2.21
interaction score [6]: 0.896
interaction score [7]: 0.942
interaction score [8]: 0.311
interaction score [9]: 1.19
interaction score [10]: -0.396
interaction score [11]: -0.504
interaction score [12]: -1.63
interaction score [13]: -0.521
interaction score [14]: -0.419
interaction score [15]: -0.323
interaction score [16]: -1.91
interaction score [17]: 1.79

Binder: DEIAQLKQEIAELEQKNAELKWEIAQLKQ [4H570-bA]
interaction score [33]: -0.223
interaction score [34]: -1.33
interaction score [35]: -1.3
interaction score [36]: 1.98
interaction score [37]: 0.277
interaction score [38]: -0.0403
interaction score [18]: -0.882

Now from value to binder:

interaction score [18]: -2.47
interaction score [19]: 2
interaction score [20]: -1.9
interaction score [21]: -2.48
interaction score [22]: -2.22
interaction score [23]: -2.6
interaction score [24]: -2.18
interaction score [25]: -1.74
interaction score [26]: 1.77
interaction score [27]: -2.06
interaction score [28]: -2.37
interaction score [29]: -1.85
interaction score [30]: -2.51
interaction score [31]: -2.14
interaction score [32]: 0.868
Binder: DKIAALKAEIAALEYENAALEAENAALEG [O11]

interaction score [39]: -1.55
interaction score [40]: -0.955
interaction score [41]: -0.5
interaction score [42]: -1.46
interaction score [43]: -1.09
interaction score [44]: -0.707
interaction score [45]: -0.781
interaction score [46]: -0.0481
interaction score [47]: -0.302
interaction score [48]: -0.122
interaction score [49]: 0.08
interaction score [50]: -0.171
interaction score [51]: -0.431
interaction score [52]: -0.0173
interaction score [53]: -0.12
interaction score [54]: -0.958
interaction score [55]: -0.748
interaction score [56]: -0.478
interaction score [57]: 0.224
interaction score [58]: 0.123
interaction score [59]: -1.4
interaction score [60]: -0.135
interaction score [61]: 0.761
interaction score [62]: -0.116
interaction score [63]: -0.556
Binder: DENQQLEQKIQELKQEIQELEWENQELKQ [4H1348-bN]
